# According to patent US20240067742A1 (4C BIOMED, published 2024):
# Residue numbers refer to the chain shown, from its start. Numbers in names are those of the source.
# B1: human recombinant HVEM (hHVEM) (receptor, UniProt Q92956 39-202, looked up)
# chain: LPSCKEDEYPVGSECCPKCSPGYRVKEACGELTGTVCEPCPPGTYIAHLNGLSKCLQCQMCDPAMGLRASRNCSRTENAVCGCSPGHFCIVQDGDHCAACRAYATSSPGQRVQKGGTESQDTLCQNCPPGTFSPNGTLEECQHQTKCSWLVTKAGAGTSSSHWV
# notes: Recombinant protein coated at 2.5 ug/ml; also called recombinant hHVEM; hHVEM coated plates
# B2: H4 (antibody, human IgG4 S228P, kappa, V domains shown)
# VH: QVQLVQSGGGLVQPGGSLRLSCAASGFTFSSYAMSWVRQAPGKGLEWVSNIYSNPNRTYYADSVEGRFTISRDNSKNTLYLQMNSLRAEDTAVYYCAKAPGDYTAYFDYWGQGTLVTVSS
# VL: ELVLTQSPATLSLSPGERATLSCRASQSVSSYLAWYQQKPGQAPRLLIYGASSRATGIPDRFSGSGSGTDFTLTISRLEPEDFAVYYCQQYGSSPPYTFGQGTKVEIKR
# modifications: N-linked glycosylation site (NXS/T; NRT) in CDR-H2 found to be glycosylated in the final antibody (FIG. 1)
# notes: also called H4-CDR2; H4 antibody
# B3: H4-E64K (antibody, human IgG4 S228P, kappa, V domains shown)
# VH: B2 VH with E65K
# VL: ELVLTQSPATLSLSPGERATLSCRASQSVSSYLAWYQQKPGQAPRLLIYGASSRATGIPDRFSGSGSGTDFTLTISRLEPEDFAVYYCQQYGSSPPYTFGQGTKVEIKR
# notes: also called H4-E64K-CDR2
# B4: H4-N55D (antibody, human IgG4 S228P, kappa, V domains shown)
# VH: B2 VH with N56D
# VL: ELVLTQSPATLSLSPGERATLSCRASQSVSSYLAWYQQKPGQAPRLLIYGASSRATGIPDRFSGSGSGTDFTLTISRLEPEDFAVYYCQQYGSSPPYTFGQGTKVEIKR
# notes: H4 variant without the CDR-H2 glycosylation site; also called H4-N55D-CDR2
# B5: H4-N55E (antibody, human IgG4 S228P, kappa, V domains shown)
# VH: B2 VH with N56E
# VL: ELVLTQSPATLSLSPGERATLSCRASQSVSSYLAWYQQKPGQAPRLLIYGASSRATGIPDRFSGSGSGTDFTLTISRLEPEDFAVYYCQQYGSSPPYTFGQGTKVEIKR
# notes: H4 variant without the CDR-H2 glycosylation site; also called H4-N55E-CDR2
# B6: H4-N55G (antibody, human IgG4 S228P, kappa, V domains shown)
# VH: B2 VH with N56G
# VL: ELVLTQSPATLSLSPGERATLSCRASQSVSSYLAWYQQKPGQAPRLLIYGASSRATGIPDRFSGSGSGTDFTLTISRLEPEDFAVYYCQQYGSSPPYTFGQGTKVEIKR
# notes: H4 variant without the CDR-H2 glycosylation site; also called H4-N55G-CDR2
# B7: H4-N55Q (antibody, human IgG4 S228P, kappa, V domains shown)
# VH: B2 VH with N56Q
# VL: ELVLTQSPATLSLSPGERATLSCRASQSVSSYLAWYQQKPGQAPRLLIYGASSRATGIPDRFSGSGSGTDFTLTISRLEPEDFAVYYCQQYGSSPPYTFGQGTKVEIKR
# notes: H4 variant without the CDR-H2 glycosylation site; also called H4-N55Q-CDR2
# B8: H4-N55S (antibody, human IgG4 S228P, kappa, V domains shown)
# VH: B2 VH with N56S
# VL: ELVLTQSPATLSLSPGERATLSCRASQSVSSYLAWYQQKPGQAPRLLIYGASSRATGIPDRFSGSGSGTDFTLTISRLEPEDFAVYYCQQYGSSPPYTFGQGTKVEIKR
# notes: H4 variant without the CDR-H2 glycosylation site; also called H4-N55S-CDR2
# B9: H4-T57A (antibody, human IgG4 S228P, kappa, V domains shown)
# VH: B2 VH with T58A
# VL: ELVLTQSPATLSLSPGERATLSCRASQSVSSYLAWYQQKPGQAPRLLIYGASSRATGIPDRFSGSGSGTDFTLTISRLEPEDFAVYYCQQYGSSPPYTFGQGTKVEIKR
# notes: H4 variant without the CDR-H2 glycosylation site; also called T57A antibody; T57A variant
# B10: H4-T57E (antibody, human IgG4 S228P, kappa, V domains shown)
# VH: B2 VH with T58E
# VL: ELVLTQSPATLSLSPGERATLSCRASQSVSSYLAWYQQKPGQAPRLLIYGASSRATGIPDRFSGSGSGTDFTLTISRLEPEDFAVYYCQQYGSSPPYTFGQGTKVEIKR
# notes: H4 variant without the CDR-H2 glycosylation site; also called H4-T57E-CDR2
# B11: H4-T57G (antibody, human IgG4 S228P, kappa, V domains shown)
# VH: B2 VH with T58G
# VL: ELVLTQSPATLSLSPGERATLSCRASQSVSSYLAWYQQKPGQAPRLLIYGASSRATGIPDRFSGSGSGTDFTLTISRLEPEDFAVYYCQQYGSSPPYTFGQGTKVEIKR
# notes: H4 variant without the CDR-H2 glycosylation site; also called H4-T57G-CDR2
# B12: H4-T57N (antibody, human IgG4 S228P, kappa, V domains shown)
# VH: B2 VH with T58N
# VL: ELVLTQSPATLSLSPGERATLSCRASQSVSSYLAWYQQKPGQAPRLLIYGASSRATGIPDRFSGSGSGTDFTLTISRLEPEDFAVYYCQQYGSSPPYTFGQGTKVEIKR
# notes: H4 variant without the CDR-H2 glycosylation site; also called H4-T57N-CDR2
# B13: H5 (antibody, human IgG4 S228P, kappa, V domains shown)
# VH: B2 VH with Y52N, S53G, N54P, P55G, R57G
# VL: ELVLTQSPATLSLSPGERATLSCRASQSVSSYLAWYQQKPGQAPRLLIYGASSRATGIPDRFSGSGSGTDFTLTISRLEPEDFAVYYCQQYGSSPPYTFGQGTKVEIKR
# notes: also called H5-CDR2
# B14: H6 (antibody, human IgG4 S228P, kappa, V domains shown)
# VH: B2 VH with N50G, Y52N, S53G, P55G, N56D, R57Y, E65K
# VL: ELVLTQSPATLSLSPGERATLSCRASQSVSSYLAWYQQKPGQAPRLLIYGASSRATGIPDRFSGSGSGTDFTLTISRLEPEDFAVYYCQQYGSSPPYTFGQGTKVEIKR
# notes: also called H6-CDR2
# B15: H8 (antibody, human IgG4 S228P, kappa, V domains shown)
# VH: B2 VH with N50A, Y52G, S53G, N54S, P55G, N56S, R57G, E65K
# VL: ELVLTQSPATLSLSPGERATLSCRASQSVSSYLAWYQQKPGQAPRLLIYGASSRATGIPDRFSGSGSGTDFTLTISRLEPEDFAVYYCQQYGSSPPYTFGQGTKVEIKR
# notes: also called H8-CDR2
# B16: Par-K64E (antibody, human IgG4 S228P, kappa, V domains shown)
# VH: B2 VH with N50A, Y52S, S53G, N54S, P55G, N56G, R57S
# VL: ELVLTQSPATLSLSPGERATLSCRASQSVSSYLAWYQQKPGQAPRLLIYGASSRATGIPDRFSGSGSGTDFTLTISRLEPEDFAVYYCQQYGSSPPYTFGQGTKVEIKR
# notes: also called Parental-K64E-VH-CDR2; Par-K64E antibody
# B17: L18-H5 (antibody, human IgG4 S228P, kappa, V domains shown)
# VH: B2 VH with Y52N, S53G, N54P, P55G, R57G
# VL: ELVLTQSPATLSLSPGERATLSCRASQSVSSYLAWYQQKPGQAPRLLIYGASSRATGIPDRFSGSGSGTDFTLTISRLEPEDFAVYYCQQYGSYPPLTFGQGTKVEIKR
# notes: combination of the L18 light chain and the H5 heavy chain; also called L18 (CDR3)-H5 (CDR2)
# B18: L18 (antibody, human IgG4 S228P, kappa, V domains shown)
# VH: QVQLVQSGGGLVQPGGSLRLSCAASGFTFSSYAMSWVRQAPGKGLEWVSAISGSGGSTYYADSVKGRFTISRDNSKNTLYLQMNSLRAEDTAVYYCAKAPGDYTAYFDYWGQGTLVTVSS
# VL: B17 VL
# notes: also called L18 (CDR3)
# B19: L18-H4 (antibody, human IgG4 S228P, kappa, V domains shown)
# VH: B2 VH
# VL: B17 VL
# notes: combination of the L18 light chain and the H4 heavy chain; also called L18 (CDR3)-H4 (CDR2)
# Molecular target: T1, hLIGHT-His (human, UniProt O43557 59-240)
# T1 construct: Named only as hLIGHT-His; also called recombinant hLIGHT; not shown: exact limits of the vendor construct
# Experiment: ELISA, plate coated with hHVEM, antibody 10 µg/ml present, hLIGHT-His 2.5 µg/ml, detection with anti-LIGHT
# T1 sequence (O43557 59-240 limits assumed): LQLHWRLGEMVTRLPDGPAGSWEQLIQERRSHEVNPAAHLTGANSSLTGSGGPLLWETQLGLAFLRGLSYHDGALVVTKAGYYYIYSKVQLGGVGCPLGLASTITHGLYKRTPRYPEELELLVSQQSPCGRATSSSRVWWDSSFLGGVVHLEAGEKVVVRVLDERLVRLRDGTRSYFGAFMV
row,Binder,binding result
1,B1,binds

# Molecular target: T2, His-tagged human HVEM (human, UniProt Q92956 39-202)
# T2 construct: extracellular domain; also called His-tagged HVEM (Acro Biosystems); HVEM extracellular domain peptide; not shown: His tag
# T2 sequence (looked up): B1 chain
# Experiment: Biacore KD to HVEM extracellular domain, IgG captured on Protein A, His-tagged HVEM as analyte; reference: Parental
# Method: Affinity maturation: To improve binding affinity, the parental antibody was affinity matured using phage display. Heavy and/or light chain CDRs of variable domain regions were semi-randomized using oligonucleotide mutagenesis. Selections were performed using separate heavy and light chain phage libraries and decreasing concentrations of biotinylated His-tagged HVEM target to select the highest affinity binders from each library. Following four rounds of selections individual clones were screened as scFv supematants in a binding ELISA to identify lead candidates with signals greater than the parental scFv expressed in the same assay. Identified hits were converted into IgG and cloned into mammalian expression vectors. Plasmids encoding the affinity improved variants paired with the appropriate parental heavy or light chain, as well as the parental antibody, were transiently transfected small scale into HEK EBNA adherent cells (LGC Standards, Teddington, UK). At five days post-transfection, the supernatants were harvested, quantified by Octet (serial no. FB-30203) and analysed by Biacore single cycle kinetics.
# (§1) Single Cycle Kinetics: To assess the binding of the affinity matured IgGs, single cycle kinetic analysis was performed on supernatants using a Biacore T200 (serial no. 1909913). Kinetic experiments were performed at 25° C. running Biacore T200 Control software V2.0.1 and Evaluation software V3.0 (Cytiva, Marlborough, USA). Antibodies were diluted in HBS-P+(Cytiva, Marlborough, USA) containing 1 mg/ml BSA to a final concentration of 1.0 μg/ml. Antibodies were loaded onto Fc2, Fc3 and Fc4 of the Protein A capture Sensor chip (Cytiva, Marlborough, USA). IgGs were captured at a flow rate of 10 μl/min to give an immobilisation level (RL) of ˜50 RU. The surface was then allowed to stabilize. Single cycle kinetics data was obtained using His-tagged HVEM (Acro Biosystems, Newark, USA) as the analyte at a flow rate of 40 μl/min. A two-fold dilution range from […] to 100 nM His-tagged antigen without regeneration between each concentration was used.
row,Binder,Fold improvement vs parental (KD) [fold]
1,B2,9.57
2,B3,2.15
3,B4,3.93
4,B5,2.73
5,B6,4.29
6,B7,2.59
7,B8,2.67
8,B9,20.7
9,B10,2.4
10,B11,6.24
11,B12,23.5
12,B13,5.05
13,B14,1.53
14,B15,1.3
15,B16,3.14
16,B17,1.51
17,B18,1
18,B19,2.57

# Molecular target: T2, His-tagged human HVEM
# Experiment: Biacore T200 single-cycle kinetics, antibody supernatant captured on Protein A, His-tagged HVEM as analyte, 25 C
# Method: as §1
# (§2) First a multicycle kinetics Biacore affinity assay was performed to confirm the improved binding of the H4, T57A, T57G and T57N antibodies (FIG. 3A). Each purified antibody was captured to a Protein A sensor chip before increasing concentrations of antigen (hHVEM) were injected. The fold improvement in affinity was calculated by dividing the average KD of the parent antibody by the average KD for each variant antibody. […] A single-cycle kinetic Biacore assay was also performed with the H4 N55G, H4 N55S, H4 N55D, H4 N55Q, H4 N55E, and H4 T57E antibodies (FIG. 3B).
row,Binder,Kd [nM]
1,B4,14.3
2,B5,20.6
3,B6,13.1
4,B7,21.7
5,B8,21
6,B10,23.4

# Molecular target: T3, HVEM on HVEM-positive melanoma cells (UniProt Q92956 39-283, limits assumed)
# T3 sequence (looked up): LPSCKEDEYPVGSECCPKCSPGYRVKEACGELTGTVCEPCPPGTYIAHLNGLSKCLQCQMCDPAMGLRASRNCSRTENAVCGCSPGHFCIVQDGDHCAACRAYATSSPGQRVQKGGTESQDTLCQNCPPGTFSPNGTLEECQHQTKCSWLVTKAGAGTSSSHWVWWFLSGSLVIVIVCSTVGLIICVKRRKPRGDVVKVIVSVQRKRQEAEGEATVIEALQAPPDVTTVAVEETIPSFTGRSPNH
# Experiment: cell-based or functional assay
row,Binder,"increase in specific killing events (Caspase 3/7) in melanoma cells cocultured with autologous TILs, as compared to the isotype control, after nine hours [%]"
1,B9,19
2,B11,19
3,B12,9

# Molecular target: T2, His-tagged human HVEM
# Experiment: Biacore 8K multi-cycle kinetics, purified antibody captured on Protein A, His-tagged human HVEM as analyte, 25 C
# Method: (§3) Multi-Cycle Kinetics: Multicycle kinetic analysis was performed on purified antibodies. Kinetic experiments were performed at 25° C. on a Biacore 8K. HBS-P+0.1% BSA (Cytiva, Marlborough, USA) was used as running buffer. Purified antibodies were diluted to 1.0 μg/mL in running buffer and at the start of each cycle, loaded onto Fc2, Fc3 and Fc4 of a Protein A sensor chip (Cytiva, Marlborough, USA). Antibodies were captured at a flow rate of 10 μl/min to give an immobilisation level (RL) of ˜ 100 RU. The surface was then allowed to stabilise. Multi-cycle kinetic data was obtained using His-tagged human HVEM as the analyte injected at a flow rate of 50 μl/min. A eight point, two-fold dilution range from 0.78 nM to 100 nM of antigen were prepared in running buffer. For each concentration, the association phases were monitored for 180 seconds and the dissociation phase was measured for 300 seconds. Regeneration of the sensor chip surface was conducted between cycles using two injections of 10 mM Glycine-HCl, pH 1.5.
# as §2
row,Binder,Kd [nM]
1,B2,4.65
2,B9,2.17
3,B11,7.27
4,B12,1.94

# Molecular target: T2, His-tagged human HVEM
# Experiment: Biacore T200 single-cycle kinetics, antibody supernatant captured on Protein A, His-tagged HVEM as analyte; reference: Parental
# Method: as §1, §2
row,Binder,Fold improvement (KD parent / KD variant) [fold]
1,B4,3.93
2,B5,2.73
3,B6,4.29
4,B7,2.59
5,B8,2.67
6,B10,2.4

# Molecular target: B1
# Experiment: blocking ELISA: antibody titrated on plate-bound hHVEM in the presence of hBTLA, bound hBTLA detected (OD); the IC50 column has no unit, µg/ml is the unit of the x axis
row,Binder,IC50 [µg/mL]
1,B9,0.53

# Molecular target: T2, His-tagged human HVEM
# Experiment: Biacore 8K multi-cycle kinetics, purified antibody captured on Protein A, His-tagged human HVEM as analyte; reference: Parental
# Method: as §3, §2
row,Binder,Fold improvement (KD parent / KD variant) [fold]
1,B2,14
2,B9,30.1
3,B11,8.97
4,B12,33.6
